This assay deals with T1, CD4抗原 (UniProt P01730 26-458, limits assumed).
T1 construct: whole, on cells; also called 细胞表面的CD4抗原
Nature of the assay: flow cytometry on Nalm6-CD4 cells; antibody from 4 μg/mL in 4-fold steps, 10 concentrations; APC goat anti-mouse IgG secondary. For orientation: In flow cytometry, cells or beads pass a laser one at a time.

B1: 抗CD4-1抗体 (antibody, V domains shown)
VH: EVQLQQSGPELVKPGDSVKMSCKASGYTFTDYFMDWVKQSHGKSLEWIGYIYPNNGGTNNNQKFKGKATLTVDKSSSTAYMELHSLTSEDSAVYYCARRGYDEGFAYWGQGTLVTVSS
VL: DILLTQSPAILSVSPGERVSFSCRASQIIGTSILWYQQRTNGSPRLLIKYASESISGIPSRFSGSGSGTDFTLSINSVESEDIADYYCQQSNTWPFTFGGGTKLEMK
notes: Detected with a goat anti-mouse IgG secondary antibody; also called 抗CD4抗体; 抗CD4(CD4-1)抗体
For the molecule B1, the concentration for a half-maximal effect (EC50) (commonly the midpoint of the concentration-response curve) is 0.101 µg/mL.
